Publication PMC12167710 (Nature Biotechnology, 2024)

Legend:
[1] = molecular target: T1, receptor-binding domain (RBD) of the wild-type SARS-CoV-2 spike protein (SARS-CoV-2, UniProt P0DTC2 333-527); assay: ELISA; conditions: both partners purified
T1 construct: also called SARS-CoV-2 RBD

[2] = molecular target: T1, receptor-binding domain (RBD) of the …; assay: cell-based or functional assay
[3] = molecular target: T1, receptor-binding domain (RBD) of the …; assay: BLI; conditions: both partners purified

Row | Binder | EC50 [1] [nM] | other [2] [ng/mL] | Kd [3] [nM]
1 | mRBD23 (antibody, V domains shown) VH: QVQLQQPGAELVRPGSSVKLSCKASGYTFTSYWMHWVKQRPIQGLEWIGNIDPSDSETHYNQKFKDKATLTVDKSSSTAYMQLSSLTSEDSAVYYCTRPGSLRSRGWYFDVWGTGTTVTVSS VL: DIVMTQAAPSVPVTPGESVSISCRSSKSLLHSNGNTYLYWFLQRPGQSPQLLIYRMSNLASGVPDRFSGSGSGTAFTLRISRVEAEDVGVYYCMQHLEYPYTFGGGTKLEIK | 0.304 | – | –
2 | mRBD4 (antibody, V domains shown) VH: QVQLQQPGAELVMPGASVKLSCKASGYTFTSYWMHWVKQRPGQGLEWIGEIDPSDSYTNYNQKFKDKSTLTVDKSSSTAYMQLSSLTSEDSAVYYCARGGVYYYGSSHYFDYWGQGTTLTVSS VL: DIVMTQAAPSVPVTPGESVSISCRSSKSLLHSNGNTYLYWFLQRPGQSPQFLIYRMSNLASGVPDRFSGSGSGTAFTLRISRVEAEDVGVYYCMQHLEYPFTFGSGTKLEIK | 0.202 | – | –
3 | mRBD3 (antibody, V domains shown) VH: QVQLQQPGAELVMPGTSVKLSCKASGYIFTSYWMHWVKQRPGQGLEWIGEIDPSDNYTNYNQKFKGKSTLTVDKSSSTAYMQLSSLTSEDSAVYYCARGGLYYYGSSYDAMDYWGQGTSVTVSS VL: DIVMTQAAPSVPVTPGESVSISCRSSKSLLHSNGNTYLYWFLQRPGQSPQLLIYRMSNLASGVPDRFSGSGSGTAFTLRISRVEAEDVGAYYCMQHLEYPFTFGSGTKLEIK | 0.102 | – | –
4 | hRBD1 (antibody, V domains shown) VH: QVQLVQSGSELKKPGASVKVSCKASGNTLTNHALNWVRQAPGQGLEWMGWINTNTGIPTYAQGFTGRFVFSLDTSVSTAYLQISSLKAEDTAVYYCARVGQTAIAALDDAFDIWGQGTMVTVSS VL: not shown | – | 83 | 0.0171
5 | hRBD2 (antibody, V domains shown) VH: QVQLVQSGSELKKPGASVKVSCKASGYTFSNYAINWVRQAPGQGLEWMGWINTNTGHPTYAQGFTGRFVFSLDASVTTAYLQISSLKAEDTAVYYCARVGRTAIAALDDAFDIWGQGTMVTVSS VL: not shown | – | 91.7 | 0.0652
6 | hRBD8 (antibody, V domains shown) VH: QVQLQQWGAGRLKPSETLSLTCAVYGGSFSGYYWSWIRQPPGKGLEWIGEIDHSGSTNYNSSLKSRVTISVDTSKKWFSLKLSSVTAADTAVYYCARAHLIGDCGGGRCYSGPDPSNWFDPWGQGTLVTVSS VL: SSELTQDPAVSVALGQTVRITCQGDSLRSYYASWYQQKPGQAPILVIYGKDNRPSGIPDRFSGSSSENTASLTITGAQAEDEADYYCNCRDTSGNHPVFGGGTKLTVL | – | 49.6 | 9.74
7 | mRBD10 (antibody, V domains shown) VH: QVQLKQSGAELVRPGASVKLSCKASGYTFTDYYINWVKQRPGQGLEWIARIYPGSGNTYYNEKFKGKATLTAEKSSSTAYMQLSSLTSEDSAVYFCARDYGSSYVDYFDYWGQGTTLTVSS VL: DIQMTQTTSSLSASLGDRVTISCRASQDISNYLNWYQQKPDGTVKLLIYYTSRLHSGVPSRFSGSGSGTDYSLTISNLEQEDIATYFCQQGNTLPLTFGAGTKLELK | 0.189 | – | –
8 | mRBD22 (antibody, V domains shown) VH: QIQLVQSGPELKKPGETVKISCKASGYTFTEYPMHWVKQAPGKGFKWMGMIYTDTGEPTYAEEFKGRFAFSLETSASTAYLQINNLKNEDTATYFCVRGGYYYFDYWGQGTTLTVSS VL: NIVLTQSPASLAVSLGQRATISCRASESVDSYGNSFMHWYQQKPGQPPKLLIYLASNLESGVPARFSGSGSRTDFTLTIDPVEADDAATYYCQQNNEDPWTFGGGTKLEIK | 0.218 | – | –
9 | mRBD11 (antibody, V domains shown) VH: QVQLQQSGAELARPGASVKLSCKASGYTFISNGISWVKQRTGQGLEWIGEIYPRNGNTYYNEKFKGKATLTADKSSSTAYMELRSLTSEDSAVFFCARDYYYGNFDYWGQGTTLTVSS VL: NIVLTQSPASLAVSLGQRATISCRASESVDSYGNSFMHWYQQKPGQPPKLLIYLASNLESGVPARFSGSGSRTDFTLTIDPVEADDAATYYCQQNNEDPYTFGGGTKLEIK | 82.3 | – | –
10 | hRBD5 (antibody, V domains shown) VH: QVQLQQWGAGLLQPSETLSLTCAVYGGSFSDYYWSWIRQPPGRGLEWIGEIDHSGSTNYNPSLKSRVTILVDTSKNQFSLKLSSVTAADTAVYYCARAHLIGHCGDGGCYSGPDPSSWFDPWGQGTLVIVSS VL: SSELTQDPAVSVALGQTVRITCQGDSLRRYFASWYQQKPGQAPVLVIYGKNIRPSGIPDRFSGSSSGNTGSLTITGAQAEDEADYYCHSRDSSGHHPLFGGGTKLTVL | – | 10.7 | 0.127
11 | hRBD6 (antibody, V domains shown) VH: QVQLQQWGAGLLKPSETLSLSCAVYGGAFSDYYWSWIRQPPGKGLEWIGEIDLSGSTNYNPSLKSRVTISVDTSKNQFSLKLISVTAADTAVYYCARTHLIGYCSGGSCYSGPDPSNWFDPWGQGTLVTVSS VL: SSELTQDPAVSVALGQTVRITCQGDSLRSYYASWYQQKPGQAPVLVIYGKNNRPSGIPDRFSGSSSGNTASLTITGAQAEDEADYYCNSRDTSGHHPVFGGGTKLTVL | – | 32.7 | 5.09
12 | hRBD11 (antibody, V domains shown) VH: QVQLQESGPGLVKPSQTLSLTCTVSGGSISSGGYYWSWIRQHPGKGLEWIGYIFYSGSTYYNPSLKSRVIISVDTSKNQFSLKLSSVTAADTAAYYCARVNRVYGSGSYSLDPWGQGTLVTVSS VL: QSALTQPASVSGSPGQSITISCTGTSRDVGDYDYVSWYQQHPGKAPKLMIYEGSERPSGVSNRFSGSKSGNTASLTISGLQAEDEADYYCCSYTGSSTSFLFGTGTKVTVL | – | – | 8.87
13 | mRBD2 (antibody, V domains shown) VH: QVQLQQSGAELARPGASVKLSCKASGYTFISNGISWVKQRTGQGLEWIGEIYPRNGNTYYNEKFKGKATLTADKSSSTAYMELRSLTSEDSAVFFCARDYYYGSFDYWGQGTTLTVSS VL: DIQMTQSPSSLSASLGERVSLTCRASREISGYLTWLQQKPDGTIKRLIYAASTLDSGVPKRFSGSRSGSDYSLTISSLESEDFADYYCLQYASYPWTFGGGTKLEIK | 0.0896 | – | –
14 | hRBD14 (antibody, V domains shown) VH: EVQLVESGGGLVQPGGSLRLSCAASGFSFSSSDMHWVRQATGKGLEWVSGIGTSGDTYYLGSVKGRFTISRDDAKNSFYLQMNSLRAGDTAVYYCARGEMAATGLWYYFDYWGQGTLVTVSS VL: not shown | – | – | 0.618
15 | hRBD3 (antibody, V domains shown) VH: QLQLQESGPRLVRPSETLSLTCTVSGGSINSGTHYCGWIRQSPGKGLEWIGSIYYSGTTYYNPSLKSRVTISVDTSKNQFSLKLSSVTAADTAVYFCARRRAGSYFKDLSDYWGQGTLVTVSS VL: NFMLTQPHSVSESPGKTVTISCTRSSGSIASNYVQWYQQRPGGAPTTVIYEDNQRPSGVPDRFSGSIDTSSNSASLTISGLKTDDEADYYCQSYDSTNHEVFGGGTKLTVL | – | 11.6 | < 0.001
16 | hRBD4 (antibody, V domains shown) VH: QLQLQESGPGLVKPSETLSLTCTVSGGSISTSSHYCAWIRQPPGKGLEWIGSIYYRGSTYYNPSLKSRVTISVDTSKNHFSLKLSSVTAADTAVYYCARRRAGSYYKDLFDYWGQGTLVTVSS VL: NFMLTQPHSVSESPGKTVTISCTRSSGSIASNYVQWYQQRPGSAPTTVIYEDNQRPSGVPDRFSGSIDSSSNSASLTISGLKTEDEADYYCQSYDNSNHEVFGGGTKLTVL | – | 8.9 | 0.491
17 | hRBD16 (antibody, V domains shown) VH: EVQLVESGGALIQPGGSLRLSCAASGFTVSSNYMYWVRQAPGKGLEWVSLIYPGGSTFYADSVKGRFTISRDNSENTLYLQMNSLRAEDTAVYYCARGPYGDSNWGQGTLVTVSS VL: DIQMTQSPSSLSASVGDRVTITCQASQDIRNYLNWYQQKPGKAPKLLIYDASNLKTGVPSRFSGSGSGTDFTFTISSLQPEDIATYYCQQYDNLPITFGQGTRLEIK | – | – | < 0.001
18 | hRBD10 (antibody, V domains shown) VH: EVQLVESGGGLVQPGGSLRLSCSASGFTFTTYNMNWVRQAPGKGLEWVSYISSSSSTIYYADSVEGRFTISRDNAKNSLYLQMNSLRDEDTAVYYCARGVGATSYYYHGMDVWGQGTTVSVSS VL: DIQMTQSPSSLSASVGDRVTITCRASQSIYSYLNWYKQKAGKAPKLLIYAASSLQSGVPSRFSGSGSGTDFTLTIISLQPEDFATYYCQQSYSTPPTFGQGTKVEIK | – | – | 0.173
19 | mRBD5 (antibody, V domains shown) VH: QVQLQQPGAELVKPGASVKVSCKASGYTFTSYWMHWVKQRPGQGLEWIGRIHPSDSDTNYNQKFKGKATLTVDKSSSTAYMQLSSLTSEDSAVYYCAIDWDGDYWGQGTTLTVSS VL: DIVMSQSPSSLAVSAGEKVTMSCKSSQSLLNSRTRKNYLAWYQQKPGQSPKLLIYWASTRESGVPDRFTGSGSGTDFTLTISSVQAEDLAVYYCKQSYNLWTFGGGTKLEIK | 0.321 | – | –
20 | mRBD6 (antibody, V domains shown) VH: QVQLQQPGAELVKPGASVKVSCKASGYTFTSYWMHWVKQRPGQGLEWIGRIHPSDSDTNYNQKFKGKATLTVDKSSSTAYMQLSSLTSEDSAVYYCAMDWDVDYWGQGTTLTVSS VL: DIVMSQSPSSLAVSAGEKVTMSCKSSQSLLNSRTRKNYLAWYQQKPGQSPKLLIYWASTRESGVPDRFTGSGSGTDFTLTISSVQAEDLAVYYCKQSYNLLTFGAGTKLELK | 0.393 | – | –
21 | mRBD24 (antibody, V domains shown) VH: EVQLQQSGPDLVKPGASVKISCKASGYTFTDYYMNWVKQSHGKSLEWIGDINPNNGGTYYNQKFKGKATLTVDKSSSTAYMELRSLTSEDSAVYYCARQLRRWGQGTLVTVSA VL: not shown | 0.0635 | – | –
22 | mRBD25 (antibody, V domains shown) VH: QVQLQQSGPELVKPGASVKISCKASGYAFSNSWMNWVKQRPGKGLEWIGRIYPGDGDTNYNGKFKGKATLTADKSSSTAYMQLSSLTSEDSAVYFCANYYGDYWGQGTTLTVSS VL: QIVLTQSPALMSASPGEKVTMTCSASSSVSYMYWYQQKPRSSPKPWIYLTSNLASGVPARFSGSGSGTSYSLTISSMEAEDAATYYCQQWSSNPYTFGGGTKLEIK | 0.0815 | – | –
